{"source": "paper PMC11703246", "assay_in_all_cases": "mass photometry", "key": {"[1]": {"target": "PopZ P146A (Caulobacter crescentus)"}, "[2]": {"target": "PopZ P146A (Caulobacter crescentus)", "remark": "listed apart in the source"}, "[3]": {"target": "isolated OD-ΔL6 of PopZ (residues 102-171) (Caulobacter crescentus)"}, "[4]": {"target": "polar organizing protein Z (PopZ), wild type (Caulobacter crescentus)"}, "[5]": {"target": "Δloop-PopZ (PopZ lacking residues 129-134) (Caulobacter crescentus)"}, "[6]": {"target": "ΔL6-PopZ (PopZ lacking residues 172-177) (Caulobacter crescentus)"}, "[7]": {"target": "ΔL6-PopZ (PopZ lacking residues 172-177) (Caulobacter crescentus)", "remark": "listed apart in the source"}, "[8]": {"target": "ΔH2-PopZ (PopZ lacking residues 102-128) (Caulobacter crescentus)"}}, "note": "Where “and” joins values, the source holds several entries; their conditions need not be identical. Equal values may be shown once. Read-outs that look alike come from different tables or passages of the source.", "data": [{"substance": "PopZ P146A (natural protein)", "values": [{"measurement": "stoichiometry N", "setting": "[1]", "result": 3}, {"measurement": "stoichiometry N", "setting": "[2]", "result": 3}]}, {"substance": "isolated OD-ΔL6 of PopZ (residues 102-171) (domain or fragment)", "values": [{"measurement": "stoichiometry N", "setting": "[3]", "result": 6}]}, {"substance": "polar organizing protein Z (PopZ), wild type (natural protein)", "values": [{"measurement": "stoichiometry N", "setting": "[4]", "result": "12 and 18"}]}, {"substance": "Δloop-PopZ (PopZ lacking residues 129-134) (natural protein)", "values": [{"measurement": "stoichiometry N", "setting": "[5]", "result": 3}]}, {"substance": "ΔL6-PopZ (PopZ lacking residues 172-177) (domain or fragment)", "values": [{"measurement": "stoichiometry N", "setting": "[6]", "result": 6}, {"measurement": "stoichiometry N", "setting": "[7]", "result": 6}]}, {"substance": "ΔH2-PopZ (PopZ lacking residues 102-128) (natural protein)", "values": [{"measurement": "stoichiometry N", "setting": "[8]", "result": "3 and 6"}]}]}
